Assay results as given in the PETadex activity labels.

Substrate: BHET
Conditions: 120 h

B1: unnamed (protein)
chain: MGGSMKLRSTAMRRRFVVLVAVVMLVVAACDWRGPAPTEQSLVAARGTFTVGTLAVPTSAGFGGGTIYYPGNHDGPFGVISISPGFLGNQSSIGEWGPRLASHGFVVITINTTNGFIQPPQRSTEQRQALSYVVAQGGVSSSPIFGIVDGARRGVAGHSMGGGASLISVQSDPSIKVAVPFAPWNSSANFSAVTSAVLIFACQNDSIAPVGSHASPMYNSIPASTDKSYVSVAGGDHFCANNPTGASGTAGKWALSYFKKFIDGDTRYDPWVCGASKPATGPVLNEVRSSCPF
With B1 the plate clearing was “not clears the plate”.

B2: unnamed (protein)
chain: MTVCKLRMFTAQKHPVTNKIFGGSSMSSRKQDLRLRQLLYCLLLSTALGGAVVHAQTAPATIAQEAFNNGFGIFTAAGSATANGQAVLAGTFGGTDGSITSSPISTQGFSNITVSFDRTTVGLDNGEAGVAEFSVAGGAFTAIESAQTASGRMSFALAASAANQAQLRLRFRVVASRANETYSVDNVLVQGVAAGAQPPPPDPQPTNNPFQRGPTPSAATLEAAQGPFAVATTTVPNPSGFGAGTIYFPTSTTEGPFAAVSIAPGFSERQANVNWWGPRLASNGFVVVVIDTNSTSDAPASRATQLVAALRQVVTLSGTSGSPVFNKVDGNRLGVMGHSLGGGGTLIAAQNNPTLKAAIPFAPFNNDTNFSSVVVPTLIIACENDNVAPVADHASPFYNSFAASLDKAFLEIAGGSHSCANSGNNNMPILGKYGVSWMKLFMDNDTRYSPFLCGAPHQADLSGTQISEYRESCPY
B2 was tested, and the plate clearing was “not clears the plate”.

B3: unnamed (protein)
chain: MPGYQGTQQNLQWLAPRLASWGFVVINVGTTTLSDDPASRGRQISAAGTQLLALGNATGNPVSGKTDGTLGAVGHSMGGGGVMAALRDDARFRAGVPTAPYYPNMNFSQVTDPTFFLTCQSDPVAHGNTYAAPWYTSMTQAEKLYIEVPGDHLCPMTGSGDKAKQGKWIVSFLSLWLRADTRFSPFLCGPVRDADKNNTSLVTRWMDTCQF
With B3 the plate clearing was “not clears the plate”.

B4: unnamed (protein)
chain: MNEVEPVNKSFLKKLSIGTGVLLVSMNALSWTPSPAPTPDPTPDPTPCQGDCDFTRGPNPTVSSVESSTGPYSVRTQSIASSVSGFGGGTIHYPTNTSGKMGAIAIAPGFLAPESSIIWWGPRLASHGFVVITIATNSVFDQPSSRGTQIGRALDYVISQSNASNSAISGMVDSTRVGAMGWSMGGGGALRLASGDRLSAAIPLAPWHQGGNSFNQLETPTLIIACENDNVAPVDRHASAFYNAIPSTTDKALLEIDGGAHSCANGDGSNDAVLGKYGISWMKRFIDNDLRYDQFLCGPNHAANSAVSEYRETCDY
For B4, the plate clearing was “not clears the plate”.

B5: unnamed (protein)
chain: MTGSTTTGGRPAPPSPPSQSSTTCTTSAVASMPILTPSRVTSAHSVSSCSARNDAGGTCTALTPVVLWAVSAVTTAMPYPPAAATDFRSAWIPAPPPGSDPATDRTLGTCSGDETVGSVDGMGDIPSSVRTASGSTGVISAPGGRTPCREDTVAPVRETVSHRTRPCASPARLPMPRHGVRAEPVGAVIRQRGRTMQHSSIRSRAARRVTAALASLTVAVGLGAASGSVAQAADNPYERGPAPSESSIEATRGHYAVSERNVSRFVSGFGGGTIYYPTTTSDGTFGAVVVSPGYTGTESSIDWLGPRLASQGFVVLTMATNTIYDQPDSRARQLQAALDYLTGSSPVADRIDDDRLALMGHSMGGGGTLRAVDDNPDIKAAIPMTPWHTKKNWSTVTTPTLVFAAENDSVARHETHAEPFYNSFSDDLPKAYLELDGASHFAPNFSNTTIAKYSISWLKRFVDDDSR
B5 was tested, and the plate clearing was “not clears the plate”.

B6: unnamed (protein)
chain: MKTTISPIKGLAIAVAIAMATVAQPALSQTSPPTSASLNATSGPLSVSTASVLLPVGFGGGTIYYPTVAGQYGVIAISPGFTATQSSIAWLGRRIATHGFVVITMDTNTTLDQPDSRATQLMAALRYVLNSSGTAVRSRVDTTRLAVAGHSMGGGGSLIAARDNPTLKASYPMTPWNLSTNFSTVRVPTMIIGADGDTIAPVATHARPFYASLPSTTFKAYGELNNGTHFSPNATSTPIGRYAVAWMKRFVDGDARYSPFLCGAEHTSYATALVFERYNQNCPY
For B6, the plate clearing was “not clears the plate”.

B7: unnamed (protein)
chain: MKIDSIIKFLCTALLVTFSLGVYAGGGGGGDEPSNDGQLPAPDTCTSNCGYANGANPTLSSLQASQGQYSVGTVNVSSSVNGFGGGTIYYPTNLSGELAAIAIAPGFTNTQSAVQWWGPVLASRGFVVVTINTNGRFDFPSSRSRQLDSALNYLIYLGEQSSGAISGKVDKNRLATMGFSMGGGGALESASRNRLSATVPLAPWYSGSNPFNQINVPSMIMACENDGTAGVNTHASPFYNRIPGSTDKVYLELNNGSHNCATGQDSNYRTTISTYGVSWLKRFLDKDSRYNQFLCGPNHVANARISEFRDTCNF
With B7 the plate clearing was “not clears the plate”.
